One may read the EC50 as the concentration needed to bring the measured effect to its halfway point. As usually defined, the EC50 (read off the curve) is the concentration giving half of the maximal effect. Usually Kd stands for the free concentration of one partner at which half of the binding sites on the other are occupied at equilibrium, for simple one-to-one binding.

Five molecules from US20230265183A1 (MABWELL SHANGHAI BIOSCIENCE, published 2023) can be followed below.

Where a chain is given by its changes, count along the chain named. Read-outs that look alike come from different tables or passages of the source.

The target in assay [1] is T1, human Nectin-4 (human, UniProt Q96NY8 32-510).
T1 sequence (looked up): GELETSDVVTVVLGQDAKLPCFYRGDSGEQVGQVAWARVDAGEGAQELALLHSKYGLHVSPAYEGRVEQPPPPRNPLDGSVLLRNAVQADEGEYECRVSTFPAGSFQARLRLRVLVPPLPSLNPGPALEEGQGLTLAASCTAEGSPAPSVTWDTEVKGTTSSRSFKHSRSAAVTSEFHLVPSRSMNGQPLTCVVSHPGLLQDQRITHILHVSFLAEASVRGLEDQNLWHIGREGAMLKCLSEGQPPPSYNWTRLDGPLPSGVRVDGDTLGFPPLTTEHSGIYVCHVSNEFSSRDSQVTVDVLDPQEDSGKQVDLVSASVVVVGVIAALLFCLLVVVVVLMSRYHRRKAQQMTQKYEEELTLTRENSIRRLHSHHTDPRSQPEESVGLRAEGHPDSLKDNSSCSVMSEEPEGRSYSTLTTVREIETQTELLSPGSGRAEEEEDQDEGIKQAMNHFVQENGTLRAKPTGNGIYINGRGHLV
In words: cell-based or functional assay.

For assay [2], the target named is T1, human Nectin-4. Briefly: FACS on BT474 cells. The procedure:
(§1) The solutions of different concentrations were added to 384-well plates, 10 µl per well.
(§2) BT474 cells (breast cancer cells) expressing Nectin-4 on the cell surface were collected by centrifugation at 100 g at room temperature for 5 minutes, and then the cells were washed with PBS containing 0.5% BSA once and were centrifuged at 100 g at room temperature for 5 minutes. […] After incubation at 4° C. for 1 hour, fluorescently labeled goat anti-human IgG secondary antibody was added. After continued incubation at 4° C. for 1 hour, mean fluorescence readings of the cell populations were analyzed by a flow cytometer.

For assay [3], the target named is T1, human Nectin-4. In words: cell-based or functional assay. The source holds these as a separate data set.
Assay [4] has as its target T1, human Nectin-4. Briefly: cell-based or functional assay. This is another data set of the same source.
For assay [5], the target named is T1, human Nectin-4. In words: FACS on BT474 cells. The procedure:
as §1, §2
The experiment results of the binding of engineered humanized molecules of the present disclosure to BT474 cells by FACS assay are shown in panels 3B and 3C in FIG. 3 and Tables 6 and 7.
This is another data set of the same source.

Assay [6] concerns the target T1, human Nectin-4. In words: FACS on BT474 cells. The procedure:
as §1, §2
This is another data set of the same source.

Assay [7] addresses T2, human Nectin-1(C-6His), Novoprotein Cat# C492 (human, UniProt Q15223 31-334, limits assumed).
T2 sequence: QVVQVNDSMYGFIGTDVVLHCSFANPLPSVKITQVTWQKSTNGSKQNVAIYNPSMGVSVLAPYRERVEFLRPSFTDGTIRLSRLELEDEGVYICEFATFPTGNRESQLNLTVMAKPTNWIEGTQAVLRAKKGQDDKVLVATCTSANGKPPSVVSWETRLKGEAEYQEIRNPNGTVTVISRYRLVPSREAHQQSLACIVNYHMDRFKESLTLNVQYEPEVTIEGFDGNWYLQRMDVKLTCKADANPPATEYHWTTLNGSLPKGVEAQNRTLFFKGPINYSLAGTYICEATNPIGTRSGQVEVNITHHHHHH
In words: ELISA, plate coated with 1 µg/ml human Nectin-1(C-6His), absorbance at 450 nm. The text names only a goat anti-rabbit HRP secondary antibody. How it is done:
(§3) Plates were coated with 1 µg/ml of the antigens and incubated at 4° C. overnight; next, antibodies serially diluted were added into the plates. Finally, the HRP-labeled secondary antibody was added, and absorbance at 450 nm was detected.
For orientation: ELISA stands for enzyme-linked immunosorbent assay.

Assay [8] concerns the target T3, murine Nectin4 (NP_082169) (murine, UniProt Q8R007 31-508).
T3 construct: whole, on cells; also called muNectin4
T3 sequence (looked up): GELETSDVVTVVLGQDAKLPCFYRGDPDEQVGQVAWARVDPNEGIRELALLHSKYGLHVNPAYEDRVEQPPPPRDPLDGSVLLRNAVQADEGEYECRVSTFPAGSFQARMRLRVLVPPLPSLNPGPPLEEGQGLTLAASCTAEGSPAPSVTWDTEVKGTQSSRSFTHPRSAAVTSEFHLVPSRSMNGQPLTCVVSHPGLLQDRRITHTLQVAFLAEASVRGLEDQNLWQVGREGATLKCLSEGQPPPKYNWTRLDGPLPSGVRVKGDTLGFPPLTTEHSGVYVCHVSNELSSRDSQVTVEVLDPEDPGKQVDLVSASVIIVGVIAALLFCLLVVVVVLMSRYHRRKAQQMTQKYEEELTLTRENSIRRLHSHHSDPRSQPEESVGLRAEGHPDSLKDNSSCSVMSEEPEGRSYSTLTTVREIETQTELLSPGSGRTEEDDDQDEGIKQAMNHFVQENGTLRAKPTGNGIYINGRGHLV
Briefly: FACS on HEK-muNectin4 cells.

Assay [9] addresses T4, human Nectin-4(C-6His), Novoprotein Cat# CJ19 (human, UniProt Q96NY8 32-349).
T4 construct: Bought protein; also called recombinant human Nectin4 protein; antigen Nectin-4
T4 sequence: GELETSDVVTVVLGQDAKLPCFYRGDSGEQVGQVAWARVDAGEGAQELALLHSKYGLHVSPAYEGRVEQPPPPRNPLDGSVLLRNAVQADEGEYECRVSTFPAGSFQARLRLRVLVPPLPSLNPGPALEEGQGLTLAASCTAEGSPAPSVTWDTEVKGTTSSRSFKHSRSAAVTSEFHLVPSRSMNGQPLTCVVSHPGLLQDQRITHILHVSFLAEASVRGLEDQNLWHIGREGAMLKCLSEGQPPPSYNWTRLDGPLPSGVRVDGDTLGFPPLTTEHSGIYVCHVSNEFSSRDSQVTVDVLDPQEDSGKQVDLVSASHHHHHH
Briefly: ELISA, plate coated with 1 µg/ml human Nectin-4(C-6His), HRP-labelled secondary antibody, absorbance at 450 nm. The procedure: as §3

Another assay deals with T5, His-tagged human NECTIN4 (human, UniProt Q96NY8 32-349).
T5 construct: Antigen of the BIAcore assay; also called antigen; recombinant NECTIN4 protein; not shown: His tag
T5 sequence: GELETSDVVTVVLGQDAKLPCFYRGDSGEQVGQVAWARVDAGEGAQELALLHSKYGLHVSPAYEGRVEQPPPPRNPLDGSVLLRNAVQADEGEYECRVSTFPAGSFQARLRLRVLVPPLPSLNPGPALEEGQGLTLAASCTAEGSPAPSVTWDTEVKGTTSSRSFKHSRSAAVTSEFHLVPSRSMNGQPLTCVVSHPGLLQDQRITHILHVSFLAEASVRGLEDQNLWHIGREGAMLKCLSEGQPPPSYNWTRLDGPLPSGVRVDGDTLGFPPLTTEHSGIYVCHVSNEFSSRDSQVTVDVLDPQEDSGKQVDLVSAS
In words: SPR (BIAcore S200), antigen on CAP chip, antibody as analyte, 1:1 fit. How it is done:
Interactions between the antibodies and the antigen were measured using a BIAcore instrument S200 from GE. Referring to the instructions provided in Biotin Capture Kit from GE Healthcare, the analytical channel and the control sample channel on CAP sensor chip were first coupled with antigen i.e. His-tagged human NECTIN4, then samples containing antibodies (diluted 3-fold from an initial concentration of 20 nM respectively and solutions of each antibody of 8 concentrations were obtained totally, and the concentration 0.741 nM was set to be repeated) were allowed to flow through both the analytical channel and the sample channel, and the photoreactions upon antibody-antigen binding were measured. Association constant Kon and dissociation constant Koff and affinity constant KD of each antibody were finally obtained by instrument software fitting (1:1 binding mode) analysis.

Assay [10] has as its target T1, human Nectin-4. Briefly: FACS on CHO-huNectin4 S8 cells.
The next assay addresses T6, Cyno Nectin4 (Cyno, UniProt Q96NY8 32-510 (human entry)).
T6 construct: Expressed on HEK293 cells (HEK-cynoNectin4)
T6 chain: T1 sequence (looked up) with V39A, I230V, A437T
Briefly: FACS on HEK-cynoNectin4 cells.

Assay [11] concerns the target T7, human Nectin-2(C-6His), Novoprotein Cat# C440 (human, UniProt Q92692 32-360, limits assumed).
T7 sequence: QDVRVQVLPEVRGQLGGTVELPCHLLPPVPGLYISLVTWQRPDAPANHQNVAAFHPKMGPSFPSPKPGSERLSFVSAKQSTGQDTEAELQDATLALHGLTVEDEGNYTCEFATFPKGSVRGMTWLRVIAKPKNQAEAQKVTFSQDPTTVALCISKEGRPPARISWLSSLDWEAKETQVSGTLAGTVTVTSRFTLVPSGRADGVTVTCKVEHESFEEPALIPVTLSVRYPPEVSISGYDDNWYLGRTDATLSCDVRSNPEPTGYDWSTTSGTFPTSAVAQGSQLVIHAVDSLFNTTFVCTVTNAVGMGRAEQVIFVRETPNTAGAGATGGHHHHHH
Briefly: ELISA, plate coated with 1 µg/ml human Nectin-2(C-6His), absorbance at 450 nm. The text names only a goat anti-rabbit HRP secondary antibody. The procedure:
as §3

B1: murine antibody 30J3 (antibody, V domains shown)
VH: EVQLQQSGPDLVKPGASVKISCKASGYSFTDYYMHWVKQSRGKGLEWIGRVNPNNGNTLYNQKFRGKAILTVDKSSSTAYMELRSLTSDDSAVYYCAREDRYAFAYWGQGTLVTVSA
VL: DIVLTQSPASLAVSLGQRATISCRASQSVSTSSYTYMHWYQQKPGQPPKLLIKYASNLESGVPARFIGSGSGTDFTLNIHPVEEEDTATYYCQHTWEIPYTFGGGTKLEIK
notes: Murine monoclonal antibody from hybridoma; also called mIgG 30J3
For B1, in the assay with human Nectin-4 [1], the “EC50 (ng/ml), inhibition of proliferation of BT474 cells” value is 16.9 ng/mL and the “Percentage of cell killing at the highest concentration” value amounted to 52.8%. The molecule further showed an EC50 with human Nectin-4 [2] of 75 µg/mL. For the same molecule, in the assay with human Nectin-4 [3], the “Endocytosis efficiency (%)” value stood at 56%.

B2: murine antibody 5M21 (antibody, V domains shown)
VH: QVQLQQSGPELVKPGASVRITCKASGYTFTTYYIHWVKQRPGQGLEWIGWIYPGNVNTKYNEKFKGKATLTADKSSSTAYMQLSSLTSEDSAVYFCARGLYYFDYWGQGTTLTVSS
VL: SIVMTQTPKFLLVSAGDRLTITCKASQSVSNDVAWYQQKPGQSPKLLIYYASNRYTGVPDRFTGSGYGTDFTFTISTVQAEDLAVYFCQQDYSSPYTFGGGTKLEIK
notes: Murine monoclonal antibody from hybridoma; also called mIgG 5M21
Regarding B2, in the assay with human Nectin-4 [1], the “EC50 (ng/ml), inhibition of proliferation of BT474 cells” value came out at 42.3 ng/mL and the “Percentage of cell killing at the highest concentration” value stood at 33.5%. Moreover, the half-maximal effective concentration (EC50) with human Nectin-4 [2] was 25.4 µg/mL. Also, the “Endocytosis efficiency (%)” value with human Nectin-4 [3] came out at 69%.

B3: chimeric antibody 5M21 xiIgG (antibody, V domains shown)
VH: B2 VH
VL: SIVMTQTPKFLLVSAGDRLTITCKASQSVSNDVAWYQQKPGQSPKLLIYYASNRYTGVPDRFTGSGYGTDFTFTISTVQAEDLAVYFCQQDYSSPYTFGGGTKLEIKR
Regarding B3, in the assay with human Nectin-4 [4], the “Endocytosis efficiency (%)” value stood at 56.9%. Also, a half-maximal response with human Nectin-4 [5] (EC50) required 46.1 µg/mL.

B4: murine antibody 20M12 (antibody, V domains shown)
VH: B2 VH with T21S, T31S, V56A, T58N, K63N, G99S, L100V
VL: B2 VL with I2V, L19V, Y55N, T74N
notes: Murine monoclonal antibody from hybridoma; also called mIgG 20M12
In the assay with human Nectin-4 [6], B4 registered an EC50 of 83.8 µg/mL.

B5: 42D20 hz63 (antibody, V domains shown)
VH: QVQLQESGPGLVKPSETLSLTCTVSGFSLIDYGVSWIRQPPGKGLEWIGVIWGGGKIYYNSVLKSRVTISKDNSKSQVSLKLSSVTAADTAVYYCAKQGGLLFYAMDYWGQGTLVTVSS
VL: DIVMTQSPDSLAVSLGERATINCKSSQSLLNTYSQKNYLAWYQQKPGQSPKLLIYFASTRESGVPDRFSGSGSETDFTLTISSLQAEDLAVYFCQQHYNTPFTFGAGTKLELKR
notes: Humanized
For the molecule B5, the results for the binding result in [7] and in [11] were “no binding (tested: about 2.5 µg/ml (last point))” and “no binding (tested: 10 µg/ml)”, respectively. In addition, the half-maximal effective concentration (EC50) is 4.7 µg/mL in assay [8], 0.946 µg/mL in the assay with human Nectin-4 [10] and 2.45 to 4.06 µg/mL in the assay with Cyno Nectin4. Further, in [9], the “EC50 (read off the curve)” value is about 0.1 µg/mL. The same molecule displayed a Kd with His-tagged human NECTIN4 of 1.8 nM.
